According to patent US20130344070A1:

Biological target: human CCR2 (CC-Chemokine Receptor 2) (human) (UniProt P41597)
Assay: cell-based or functional assay

human CCR2 (CC-Chemokine Receptor 2) (human), sequence (P41597 whole entry): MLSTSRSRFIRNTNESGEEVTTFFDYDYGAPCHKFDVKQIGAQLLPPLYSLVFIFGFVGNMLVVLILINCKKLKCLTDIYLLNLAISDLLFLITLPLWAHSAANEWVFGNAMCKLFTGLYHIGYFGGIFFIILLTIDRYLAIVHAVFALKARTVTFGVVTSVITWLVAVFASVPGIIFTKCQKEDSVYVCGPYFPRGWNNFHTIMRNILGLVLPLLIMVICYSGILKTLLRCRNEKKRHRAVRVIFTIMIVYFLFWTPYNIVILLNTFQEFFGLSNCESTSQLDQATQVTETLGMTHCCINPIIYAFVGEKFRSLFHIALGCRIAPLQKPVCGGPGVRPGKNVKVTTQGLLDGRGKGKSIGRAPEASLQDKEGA

B1: MLN1202 (Takeda) (antibody, INN chains, looked up, V domains shown)
VH: EVQLVESGGGLVKPGGSLRLSCAASGFTFSAYAMNWVRQAPGKGLEWVGRIRTKNNNYATYYADSVKDRFTISRDDSKNTLYLQMNSLKTEDTAVYYCTTFYGNGVWGQGTLVTVSS
VL: DVVMTQSPLSLPVTLGQPASISCKSSQSLLDSDGKTFLNWFQQRPGQSPRRLIYLVSKLDSGVPDRFSGSGSGTDFTLKISRVEAEDVGVYYCWQGTHFPYTFGQGTRLEIK
An IC50 in calcium flux assay using human THP-1 cells, ligand MCP-1 (2.5 nM) of 250 pM, an IC50 in calcium flux assay using human THP-1 cells, ligand MCP-3 (22 nM) of 110 pM and an IC50 in calcium flux assay using human THP-1 cells, ligand MCP-5 (0.43 nM) of 180 pM were found for B1 in this work. The IC50 in chemotaxis assay using human THP-1 cells, ligand MCP-1 (3 nM) was 310 pM, the IC50 in chemotaxis assay using human THP-1 cells, ligand MCP-2 (6.7 nM) was 460 pM and the IC50 in chemotaxis assay using human THP-1 cells, ligand MCP-3 (1.1 nM) was 1830 pM. The IC50 in chemotaxis assay using human THP-1 cells, ligand MCP-4 (35 nM) was 840 pM, the IC50 in chemotaxis assay using human THP-1 cells, ligand MCP-5 (0.65 nM) was 370 pM and the IC50 on MCP-1 induced THP-1 cell migration was 309 pM. It also gave an IC50 on MCP-2 induced THP-1 cell migration of 459 pM, an IC50 on MCP-3 induced THP-1 cell migration of 1830 pM and an IC50 on MCP-4 induced THP-1 cell migration of 843 pM. It also gave an IC50 on mouse MCP-5 induced THP-1 cell migration of 368 pM.
